Assay results from the supplement of paper PMC9170038.

System: MS2 coat protein
Assay: apparent KD of MS2 coat protein; designed switch direction (-1 OFF switch, 1 ON switch): -1; higher = weaker reporter binding
Procedure, shortened: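 The buffer was Tris-HCl pH 7.5 with KCl, MgCl2, BSA, DTT, tRNA and Tween-20. In it, SNAP-549-labelled MS2 coat protein was titrated in doubling steps from 0.7 or 1.5 nM to 3 µM over chip-bound RNA switches transcribed by stalled E. coli RNA polymerase on Illumina chips. Apparent KD is the per-design median over clusters of curve fits to normalised fluorescence.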

[1] = Eterna round: R95, input ligand: FMN 200 uM
[2] = Eterna round: R95, input ligand: microRNA oligo, concentration not stated
[3] = Eterna round: R95, input ligand: none
[4] = input ligand: microRNA oligo, concentration not stated

Row | Sequence | apparent KD of MS2 coat protein (input ligand: FMN 200 uM) | apparent KD of MS2 coat protein (input ligand: none) | apparent KD of MS2 coat protein [2] | further results
1 | GCCUUAUCCGUCAGGAUAUACAGCCGCUCCCUGUUGUAGAAGGGACAUGAGGAUCACCCAUGUACGUACCAUUG [alecazam6] (Eterna round: R97, puzzle: Brourd's mod of Exclusion 4) | 31.8 nM | 39.1 nM |  | 
2 | CCAAUACAAGGAUAUGCGAUGCAUGUCAGGUUAGUAGACAGACAUGAGGAUCACCCAUGUAGAAGGUGUGUUGG [Eternabot (L2) Solution 55] (Eterna round: R97, puzzle: Exclusion 2) | 75.6 nM | 41.4 nM |  | 
3 | UUGAGCAGACGGAGAUCCAACAUGAGGAUCACCCAUGUCUCAUAAGCUUUUUGUUCAUCUUAUUGUACCUUGGUGCA [Mat - Sensor v3 - turn-off var 1 - JL Mod - D24] (puzzle: Sensor v3, turn-off variant 1) |  |  | 17 nM | apparent KD of MS2 coat protein [1]: 71.3 nM; apparent KD of MS2 coat protein [3]: 64.1 nM
4 | CGAGCUGCUGUGAGGAUAUACCUAUGGAUACAUAGGUAGAAGGCACAUGAGGAUCACCCAUGUCCUGCAGCUCG [jl-bmx4-4.60 Eli mod] (Eterna round: R97, puzzle: Brourd's mod of Exclusion 4) | 232 nM | 44 nM |  | 
5 | GGAUUACGAGGAUAUCGAUUUUAGUACAUGAGGAUCACCCAUGUUGUCCAGGUCUCGUUUCGAGAAGGCGUGAUUC [LRO-Ex5-06] (puzzle: Exclusion 5) |  |  | 58.4 nM | 
6 | GAAAAGGUAGGAUAUACGAAAAAAAAGGGUAGAAAAUAAACACAUGAGGAUCACCCAUGUAGAAGGACCAAAAG [salish99_ex2_r3_075] (puzzle: Exclusion 2) |  |  | 25.3 nM | apparent KD of MS2 coat protein [1]: 92 nM; apparent KD of MS2 coat protein [3]: 25.7 nM
7 | ACUGGGAGAGGAUAUACAUGAGGAUCACCCAUGUGAAAUUAUAGUGAGGAAAUGAAAAGUAGAAGGCUCUUAGA [Mod of Mat 14 - Jieux - Exclusion 3] (Eterna round: R97, puzzle: Exclusion 3) | 151 nM | 68.4 nM |  | 
8 | GCGGACAAGAUGGAGACAUCAGAGACAUGAGGAUCACCCAUGUAGGAUAUCGAUUCGAAACGAAUCGAGAAGGGCAUAGUCCGC [JL denovo 2] (Eterna round: R96, puzzle: Exclusion NG 3) | 16.8 nM | 19.2 nM |  | apparent KD of MS2 coat protein [4]: 13.3 nM
9 | CAGUACUGAGGAUAUACAUGAGGAUCACCCAUGUGAGAGAUACUAGUGAGGUCGAUUAGUAGAAGGCGGUACUG [Mat X3R4 m5] (Eterna round: R97, puzzle: Exclusion 3) | 306 nM | 40.8 nM |  | 
10 | UUCACAUGGACAUGAGAUCACAUGAGGAUCACCCAUGUGAAUAACAAGCUUUUUGCUCGUCUUAUGUCCAAUAAUAG [Stov1/14-C2] (Eterna round: R97, puzzle: Sensor, turn-off variant 1) | 13.7 nM | 12.6 nM |  | 
11 | UUUUACUGAGGAUAUACAUUUUUUUAUUUAUUUAUAAUAUUACAUGAGGAUCACCCAUGUAGAAGGCAGAUUUU [My Design] (puzzle: Exclusion 2) |  |  | 26.7 nM | 
12 | UUUGUAUAUGAAGGAUAUACUUAACAUGAGGAUCACCCAUGUGGUGUUGUGAGUGAGUGAGUUUAGUAGAAGGUCAAGUAUUUU [JMF's solution 50] (Eterna round: R96, puzzle: Exclusion NG 2) | 403 nM | 367 nM |  | apparent KD of MS2 coat protein [4]: 298 nM
13 | GGAGAGGUAGGAUAUGGACCUUAGAACAUGAGGAUCACCCAUGUAGGACCACAUGAAAUGCCAGAAGGACCAGUCC [AK-MS2ROC-r4-exclusion5-5] (Eterna round: R97, puzzle: Exclusion 5) | 153 nM | 145 nM |  | 
14 | GUAGAGUAAGGAUAUGGUGAAUAGGAUAGAAUGGUUAGAAACCAGAAGGUACAUGAGGAUCACCCAUGUAAUGU [Excluse me!!!! 16 - Jieux - Exclusion 4] (puzzle: Exclusion 4) |  |  | 20.2 nM | 
